Each block holds one binder with its values, some of them ahead of it.
Columns and labels:
[1] = target: T1, human CD115 extracellular domain (Sino Biological 10161-H08H) (human, UniProt P07333 20-517); test: competition ELISA, competitor TMR 24A;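 note: clonal anti-huCD115 hybridoma supernatant antibodies bound with a competitor mouse antibody present, and failure to bind puts a clone in that competitor's epitope bin; low signal means same epitope bin as the mouse competitor antibody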
T1 construct: extracellular domain; bought recombinant protein; also called huCD115; hu-CD115

[2] = target: T1, human CD115 extracellular domain (Sino …); test: competition ELISA, competitor TMR 35A;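 note: clonal hybridoma supernatant antibodies added to wells after the competitor mouse antibody, lost binding signal puts an antibody in that competitor's epitope bin; low signal means same epitope bin as the mouse competitor antibody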
[3] = target: T1, human CD115 extracellular domain (Sino …); test: competition ELISA, competitor TMR 95A;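 note: clonal anti-huCD115 hybridoma supernatants tested for binding while a competitor mouse antibody is present, where failure to bind assigns them to that competitor's epitope bin; low signal means same epitope bin as the mouse competitor antibody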
[4] = target: T1, human CD115 extracellular domain (Sino …); test: competition ELISA, competitor TMR 20A;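 note: epitope binning by ELISA, anti-huCD115 hybridoma supernatant antibodies tested for binding to huCD115 with the competitor antibody present, loss of binding placing them in the competitor's bin; low signal means same epitope bin as the mouse competitor antibody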
[5] = target: T1, human CD115 extracellular domain (Sino …); test: competition ELISA, competitor TMR 100A
[6] = target: T1, human CD115 extracellular domain (Sino …); test: competition ELISA, competitor TMR 44B
[7] = target: T1, human CD115 extracellular domain (Sino …); test: SPR ProteOn, supernatant mAb captured on anti-mouse IgG, Hu CD115 analyte
[8] = target: T2, native CD115 on OCI-AML5 cells (UniProt P07333 20-972, limits assumed); test: cell-based or functional assay
[9] = target: T1, human CD115 extracellular domain (Sino …); test: SPR ProteOn, mAb amine coupled, Hu CD115 analyte
[10] = target: T1, human CD115 extracellular domain (Sino …); test: ELISA, blocking of biotin-CSF-1 binding to coated hu-CD115
[11] = target: T2, native CD115 on OCI-AML5 cells; test: FACS, supernatant on OCI-AML5 cells
[12] = target: T1, human CD115 extracellular domain (Sino …); test: ELISA, supernatant on huCD115

- signal vs NO COMP=100 [1]: 58%
- signal vs NO COMP=100 [2]: 83%
- signal vs NO COMP=100 [3]: 46%
- signal vs NO COMP=100 [4]: 96%
- signal vs NO COMP=100 [5]: 102%
- signal vs NO COMP=100 [6]: 22%
- Kd [7]: 0.65 nM
- koff [7]: 1.48e-05 s⁻¹
- kon [7]: 23000 M⁻¹ s⁻¹
B1: CCK-467A (antibody, V domains shown)
VH: EVQLVESGGGLVKPGGSLRLSCAASGFTFSSYSMNWVRQAPGKGLEWVSSISSSSSYIYYADSVKGRFTISRDNAKNSLFLQMNSLRAEDTAVYYCARGGSFPYNWFDPWGQGTLVTVSS
VL: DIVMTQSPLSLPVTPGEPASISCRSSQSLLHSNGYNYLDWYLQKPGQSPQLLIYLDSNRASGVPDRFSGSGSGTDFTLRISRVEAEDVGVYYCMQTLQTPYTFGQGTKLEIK
notes: AlivaMab chimeric IgG, human kappa LC

- IC50, inhibition of CSF-1 induced P-Tyr on CD115 [8]: 0.068 nM
- Kd [9]: 1.2 nM
- koff [9]: 0.017 s⁻¹
- kon [9]: 1.2e+07 M⁻¹ s⁻¹
- IC50 [10]: 0.146 nM
B2: CCK423A-IgG1κ (fully human) (antibody, V domains shown)
VH: QVQLEQSGAEVKRPGASVKVSCKASGYTFTGYYMHWVRQAPGQGLEWMGWINPNRGDTNYAQKFQGRVTMTRDTSISTAYMELSRLRSDDTAVYYCARDLEGGGPFDYWGQGTLVTVSS
VL: DIVMTQTPLSLPVTPGEPASISCRSSQSLLDSDDGNTYLDWYLQKPGQSPQLLIYTLSYRASGVPDRFSGSGSGTDFTLKISRVEAEDVGVYYCMQRIEFPSTFGQGTRLEIK
notes: also called Human IgG1κ; CCK423A-I IgG1κ

- IC50, inhibition of CSF-1 induced P-Tyr on CD115 [8]: 0.059 nM
- Kd [9]: 1.3 nM
- koff [9]: 0.014 s⁻¹
- kon [9]: 1.3e+07 M⁻¹ s⁻¹
- IC50 [10]: 0.253 nM
B3: CCK423A-IgG2κ (fully human) (antibody, V domains shown)
VH: QVQLEQSGAEVKRPGASVKVSCKASGYTFTGYYMHWVRQAPGQGLEWMGWINPNRGDTNYAQKFQGRVTMTRDTSISTAYMELSRLRSDDTAVYYCARDLEGGGPFDYWGQGTLVTVSS
VL: DIVMTQTPLSLPVTPGEPASISCRSSQSLLDSDDGNTYLDWYLQKPGQSPQLLIYTLSYRASGVPDRFSGSGSGTDFTLKISRVEAEDVGVYYCMQRIEFPSTFGQGTRLEIK
notes: also called Human IgG2κ

- binding result [11]: binds
- binding result [12]: binds
B4: CCL-337A (antibody, V domains shown)
VH: QVQLQESGPGLVKPSETLSLTCTVSGGSINSYYWSWIRQPAGKGLEWIGRIYTSGNTNYNPSLKSRVTMSVDTSKNLFSLKLSSVTAADTAVYYCARERLTGYFDYWAQGTLVTVSS
VL: not shown
notes: AlivaMab chimeric IgG, human lambda LC

- binding result [11]: binds
- binding result [12]: binds
B5: CCL-211A (antibody, V domains shown)
VH: QVQLQESGPGLVKPSETLSLTCTVSGGSISSYYWSWIRQPAGKGLEWIGRIYISGTTNYNPSLMSRVTMSVDTSKNQFSLKLTSVTAADTAVYYCARERLVRAFDIWGQGTMVTVSS
VL: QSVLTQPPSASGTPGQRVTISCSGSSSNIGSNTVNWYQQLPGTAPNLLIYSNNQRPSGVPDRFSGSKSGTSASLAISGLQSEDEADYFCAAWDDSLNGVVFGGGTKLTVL
notes: as for B4

- binding result [11]: binds
- binding result [12]: binds
B6: CCL-204A (antibody, V domains shown)
VH: QVQLQESGPGLVKPSETLSLTCTISSGSISSYYWSWIRQPAGKGLEWIGRIYTSGSTNYHPSLKSRVTMSVDTSKNHFSLKLTSVTAADTAVYYCARERLTGFFDYWGQGTLVTVSS
VL: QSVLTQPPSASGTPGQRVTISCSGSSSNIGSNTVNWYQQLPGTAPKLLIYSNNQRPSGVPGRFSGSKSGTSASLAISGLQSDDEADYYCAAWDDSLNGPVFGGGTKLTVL
notes: as for B4

- binding result [11]: binds
- binding result [12]: binds
B7: CCL-205A (antibody, V domains shown)
VH: QVQLQESGPGLVKPSETLSLTCTVSGGSISSYYWSWIRQPAGKGLEWIGRIYISGSIYNNPSLKSRVTMSVDTSKNQFSLKLSSVTAADTAVYYCARDRVGMTFDIWGQGTMVTVSS
VL: not shown
notes: as for B4

- binding result [11]: binds
- binding result [12]: binds
B8: CCL-247A (antibody, V domains shown)
VH: QVQLQESGPGLVKPSETLSLTCTVSDGSISSYYWSWIRQPAGKGLEWIGRIYTSGSTNYNPSLKSRVTMSVDTSKNQFSLKLTSVTAADTAVYYCARERITSFFDPWGQGTLVTVSS
VL: not shown
notes: as for B4

- binding result [11]: binds
- binding result [12]: binds
B9: CCL-346A (antibody, V domains shown)
VH: QVQLQESGPGLVKPSETLSLTCTVSGGSISSYYWSWIRQPAGKGLEWIGRFYTSGSTSCNPSLKSRVTMSVDTSKNQFSLKLSSVTAADTAVYYCAREGILGYFDYWGQGTLVTVSS
VL: not shown
notes: as for B4

- signal vs NO COMP=100 [1]: 109%
- signal vs NO COMP=100 [2]: 111%
- signal vs NO COMP=100 [3]: 42%
- signal vs NO COMP=100 [4]: 34%
- signal vs NO COMP=100 [5]: 93%
- signal vs NO COMP=100 [6]: 15%
- Kd [7]: 1.4 nM
- koff [7]: 0.000374 s⁻¹
- kon [7]: 267000 M⁻¹ s⁻¹
B10: CCK-541A (antibody, V domains shown)
VH: QVQLQESGPGLVKPSETLSLTCTVSGASISTYFWSWLRQPPGKGLEWIGYIFYSGSINYNPSLKSRVTISVDTSKNQFSLELSSVTAADTAVYYCARDRTFYGMDVWGQGTTVTVSS
VL: EIVLTQSPGTLSLPPGERATLSCRASQNVSSTYLAWYHQKPGQAPRLLIYGASSRATGIPDRFSGSGSGTDFTLTISRLEPEDFAVYYCQQYGSSPRTFGQGTKVEIK
notes: as for B1

- signal vs NO COMP=100 [1]: 42%
- signal vs NO COMP=100 [2]: 64%
- signal vs NO COMP=100 [3]: 27%
- signal vs NO COMP=100 [4]: 73%
- signal vs NO COMP=100 [5]: 96%
- signal vs NO COMP=100 [6]: 27%
- Kd [7]: 1.97 nM
- koff [7]: 5.3e-05 s⁻¹
- kon [7]: 27000 M⁻¹ s⁻¹
B11: CCK-456A (antibody, V domains shown)
VH: EVHLVESGGGLVKPGGSLRLSCAASGFTFSSYSMNWFRQAPGKGLEWVSSISSSSSYIYYADSVKGRFTISRDNAKNSLSLQMNSLRAEDTAVYYCARAGAVAALYNWFDPWGQGTLVTVSS
VL: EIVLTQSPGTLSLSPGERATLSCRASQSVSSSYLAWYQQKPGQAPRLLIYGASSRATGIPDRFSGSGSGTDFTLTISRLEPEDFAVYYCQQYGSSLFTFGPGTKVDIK
notes: as for B1

- binding result [11]: binds
- binding result [12]: binds
B12: CCL-216A (antibody, V domains shown)
VH: QVQLQESGPGLVKPSETLSLTCTVSGDSISNYYWSWIRQPAGKGLEWIGRIYTSGSTNNNPSLKSRVTMSVDTSKNQFSLKLSSVTAADTAVYYCARERINWFDPWGQGTLVTVSS
VL: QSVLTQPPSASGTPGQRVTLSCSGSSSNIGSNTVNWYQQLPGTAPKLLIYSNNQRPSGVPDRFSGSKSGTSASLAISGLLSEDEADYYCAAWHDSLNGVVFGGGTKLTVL
notes: as for B4

- binding result [11]: binds
- binding result [12]: binds
B13: CCL-328A (antibody, V domains shown)
VH: QVQLQESGPGLVKPSETLSLTCTVSGGSISSYYWSWIRQPAGKGLEWIGRIYTSGSTNYNPSLKSRVTMSIDTSKNQFSLKLSSVTAADTAVYYCARSRLGIFDYWGQGTLVTVSS
VL: not shown
notes: as for B4

- binding result [11]: binds
- binding result [12]: binds
B14: CCL-325A (antibody, V domains shown)
VH: QVQLQESGPGLVKPSETLSLTCTVSGGSISSYYWSWIRQSAGKGLEWIGHIYTSGSTNYNPSLKSRVTMSVDTSKNQFSLKLSSVTAADTAVYYCARERTVVTYFDYWGQGTLVTVSS
VL: not shown
notes: as for B4

- binding result [11]: binds
- binding result [12]: binds
B15: CCL-321A (antibody, V domains shown)
VH: EVQLVESGGGLVQPGGSLRLSCAASGFTFSSYSMNWVRQAPGKGLEWVSYISSSSSTIYYSDSVRGRFTISRDNAKNSLYLQMDSLRDEDTAVYYCARDSTMIVVVKVPDAFDIWGQGTMVTVSS
VL: not shown
notes: as for B4

- binding result [11]: binds
- binding result [12]: binds
B16: CCL-309A (antibody, V domains shown)
VH: EVQLVESGGGLVQPGGSLRLSCAASGFTFSTYSMNWVRQAPGKGLEWVSYISSSSAIIYYADSVKGRFTISRDNAKNSLYLQMNSLRDEDTAVYYCARDLPITMIVVVMPDAFDIWGQGTMVTVSS
VL: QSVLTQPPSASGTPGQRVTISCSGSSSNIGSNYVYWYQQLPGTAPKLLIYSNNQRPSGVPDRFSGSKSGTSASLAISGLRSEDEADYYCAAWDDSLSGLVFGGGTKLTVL
notes: as for B4

- signal vs NO COMP=100 [1]: 81%
- signal vs NO COMP=100 [2]: 88%
- signal vs NO COMP=100 [3]: 41%
- signal vs NO COMP=100 [4]: 78%
- signal vs NO COMP=100 [5]: 92%
- signal vs NO COMP=100 [6]: 8%
- Kd [7]: 1.41 nM
- koff [7]: 0.000749 s⁻¹
- kon [7]: 531000 M⁻¹ s⁻¹
B17: CCK-465A (antibody, V domains shown)
VH: QVQLQESGPGLVKPSETLSLSCTVSGGSISSYYWSWIRQPAGKGLEWIGRIYTSGSTNYNPSLKSRVTMSVDTSKNQFSLKLSSVTAADTAVYYCARDRSFYGMDVWGQGTTVTVSS
VL: DIQMTQSPSSLSASVGDRVTITCRASQGFSNYLAWYQQKPGKVPKLLIYAASTLQSGVPSRFSGSGSGTDFTLTISSLQPEDVATYYCQKYNSAPLTFGGGTKVEIK
notes: as for B1

- binding result [11]: binds
- binding result [12]: binds
B18: CCL-332A (antibody, V domains shown)
VH: EVQLVESGGGLVQPGGSLRLSCAASGFTFSSYSMNWVRQAPGKGLEWVSYISSSSSTIYYADSVKGRFTISRDNAKNSLYLQMNSLRDEDTAVYYCARDYYGSSGYYYPHAFDIWGQGTMVTVSS
VL: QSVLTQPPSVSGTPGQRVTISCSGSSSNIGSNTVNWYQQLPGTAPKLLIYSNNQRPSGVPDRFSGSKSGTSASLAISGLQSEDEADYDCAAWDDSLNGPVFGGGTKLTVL
notes: as for B4

- binding result [11]: binds
- binding result [12]: binds
B19: CCL-213A (antibody, V domains shown)
VH: QVQLQESGPGLVKPSETLSLTCTVSGGSISSYYWSWIRQPAGKGLEWIGRIYTSGSTKNPSLKSRVTMSVDTSKNQFSLKLSSVTAADTAVYYCARLTVVGALDYWGQGTLVTVSS
VL: not shown
notes: as for B4
